Measured values: patent publication US20070123452A1, “Method of selecting novel immunosuppressant” (Astellas Pharma Inc., priority 2002, published 2007)

T1: HDAC3, endogenous protein of the transfected cells, O15379
T1 chain: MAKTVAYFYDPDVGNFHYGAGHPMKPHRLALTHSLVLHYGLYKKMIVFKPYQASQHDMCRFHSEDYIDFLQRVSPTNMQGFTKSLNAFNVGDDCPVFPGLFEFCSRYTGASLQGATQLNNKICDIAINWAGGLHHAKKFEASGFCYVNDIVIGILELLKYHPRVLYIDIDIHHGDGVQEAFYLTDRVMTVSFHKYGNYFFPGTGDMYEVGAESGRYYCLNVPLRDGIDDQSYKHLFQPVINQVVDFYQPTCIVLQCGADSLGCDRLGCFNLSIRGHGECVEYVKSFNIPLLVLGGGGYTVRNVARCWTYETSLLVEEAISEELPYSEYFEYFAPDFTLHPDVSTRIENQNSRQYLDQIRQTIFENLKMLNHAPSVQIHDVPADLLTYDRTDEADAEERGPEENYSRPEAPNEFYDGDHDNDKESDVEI


What was measured:
[1] = biological target: T1, HDAC3, endogenous protein of the …
[2] = biological target: N-CoR (nuclear receptor corepressor), endogenous protein of the transfected cells, O75376
Chain of N-CoR (nuclear receptor corepressor), endogenous protein of the transfected cells, O75376 (O75376 whole entry): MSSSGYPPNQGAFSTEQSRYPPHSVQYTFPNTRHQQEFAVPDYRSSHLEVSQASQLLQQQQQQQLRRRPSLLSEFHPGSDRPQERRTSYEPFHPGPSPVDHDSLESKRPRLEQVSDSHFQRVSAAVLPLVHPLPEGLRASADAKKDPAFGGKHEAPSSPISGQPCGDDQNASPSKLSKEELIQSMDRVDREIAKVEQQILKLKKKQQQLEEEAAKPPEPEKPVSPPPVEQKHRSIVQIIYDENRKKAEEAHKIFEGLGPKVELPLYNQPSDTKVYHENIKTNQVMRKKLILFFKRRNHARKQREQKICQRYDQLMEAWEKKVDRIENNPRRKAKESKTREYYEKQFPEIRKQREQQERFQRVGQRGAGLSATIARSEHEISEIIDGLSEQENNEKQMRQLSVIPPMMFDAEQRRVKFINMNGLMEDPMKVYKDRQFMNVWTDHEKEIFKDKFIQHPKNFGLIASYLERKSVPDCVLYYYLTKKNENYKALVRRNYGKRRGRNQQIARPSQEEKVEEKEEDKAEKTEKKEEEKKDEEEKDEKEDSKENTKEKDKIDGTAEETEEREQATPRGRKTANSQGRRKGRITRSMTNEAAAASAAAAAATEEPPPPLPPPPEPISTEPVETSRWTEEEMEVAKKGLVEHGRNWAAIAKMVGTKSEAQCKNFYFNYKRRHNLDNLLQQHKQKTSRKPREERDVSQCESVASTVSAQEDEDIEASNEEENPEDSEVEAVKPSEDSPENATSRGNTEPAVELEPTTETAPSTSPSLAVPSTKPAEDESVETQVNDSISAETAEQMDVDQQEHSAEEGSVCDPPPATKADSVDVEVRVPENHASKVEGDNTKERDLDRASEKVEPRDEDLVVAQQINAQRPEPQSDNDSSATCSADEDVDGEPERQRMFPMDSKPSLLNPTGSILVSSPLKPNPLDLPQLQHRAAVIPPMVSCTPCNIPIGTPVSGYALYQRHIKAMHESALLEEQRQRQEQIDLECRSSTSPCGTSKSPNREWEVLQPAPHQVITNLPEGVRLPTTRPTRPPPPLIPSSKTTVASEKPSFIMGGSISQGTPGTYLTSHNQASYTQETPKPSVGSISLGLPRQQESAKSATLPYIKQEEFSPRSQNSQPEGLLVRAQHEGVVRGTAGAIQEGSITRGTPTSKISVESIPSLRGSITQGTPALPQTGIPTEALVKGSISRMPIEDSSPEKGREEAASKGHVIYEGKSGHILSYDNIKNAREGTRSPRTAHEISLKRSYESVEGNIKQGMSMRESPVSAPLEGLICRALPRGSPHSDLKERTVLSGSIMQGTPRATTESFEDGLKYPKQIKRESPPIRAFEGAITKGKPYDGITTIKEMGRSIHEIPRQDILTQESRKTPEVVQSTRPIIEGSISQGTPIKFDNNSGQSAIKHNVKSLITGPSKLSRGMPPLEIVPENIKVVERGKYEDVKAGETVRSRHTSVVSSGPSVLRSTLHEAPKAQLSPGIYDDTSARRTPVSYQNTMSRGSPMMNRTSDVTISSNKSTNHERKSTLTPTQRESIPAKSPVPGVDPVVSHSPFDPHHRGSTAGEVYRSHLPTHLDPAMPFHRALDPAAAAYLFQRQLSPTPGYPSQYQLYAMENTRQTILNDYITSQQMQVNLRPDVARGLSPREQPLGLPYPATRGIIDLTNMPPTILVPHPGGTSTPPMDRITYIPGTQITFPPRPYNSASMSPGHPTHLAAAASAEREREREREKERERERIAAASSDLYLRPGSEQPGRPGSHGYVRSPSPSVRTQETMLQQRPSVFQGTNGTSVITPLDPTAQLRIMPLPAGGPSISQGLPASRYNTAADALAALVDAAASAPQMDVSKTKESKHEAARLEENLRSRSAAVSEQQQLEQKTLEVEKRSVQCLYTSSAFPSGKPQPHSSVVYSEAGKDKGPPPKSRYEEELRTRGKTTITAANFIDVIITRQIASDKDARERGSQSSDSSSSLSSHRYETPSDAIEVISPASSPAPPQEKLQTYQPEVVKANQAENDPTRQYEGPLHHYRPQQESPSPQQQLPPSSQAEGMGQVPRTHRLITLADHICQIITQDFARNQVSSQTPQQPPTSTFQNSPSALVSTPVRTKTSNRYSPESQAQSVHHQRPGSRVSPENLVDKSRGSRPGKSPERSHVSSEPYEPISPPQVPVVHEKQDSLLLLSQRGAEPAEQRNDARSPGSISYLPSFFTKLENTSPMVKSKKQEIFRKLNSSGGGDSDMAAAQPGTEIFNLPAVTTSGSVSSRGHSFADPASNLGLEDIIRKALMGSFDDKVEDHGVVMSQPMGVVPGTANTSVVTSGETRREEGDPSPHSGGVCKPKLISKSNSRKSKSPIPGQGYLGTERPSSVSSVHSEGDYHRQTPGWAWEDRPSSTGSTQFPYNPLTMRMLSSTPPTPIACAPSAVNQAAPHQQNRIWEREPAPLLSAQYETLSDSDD

Protein	HDAC activity with [3H]-labeled acetylated histone as a substrate [1]	HDAC activity with [3H]-labeled acetylated histone as a substrate [2]
HDAC4 dominant negative variant (H863L) with C-terminal Flag (expressed from pEAK-HDAC4 (H863L)) (protein) MSSQSHPDGLSGRDQPVELLNPARVNHMPSTVDVATALPLQVAPSAVPMDLRLDHQFSLPVAEPALREQQLQQELLALKQKQQIQRQILIAEFQRQHEQLSRQHEAQLHEHIKQQQEMLAMKHQQELLEHQRKLERHRQEQELEKQHREQKLQQLKNKEKGKESAVASTEVKMKLQEFVLNKKKALAHRNLNHCISSDPRYWYGKTQHSSLDQSSPPQSGVSTSYNHPVLGMYDAKDDFPLRKTASEPNLKLRSRLKQKVAERRSSPLLRRKDGPVVTALKKRPLDVTDSACSSAPGSGPSSPNNSSGSVSAENGIAPAVPSIPAETSLAHRLVAREGSAAPLPLYTSPSLPNITLGLPATGPSAGTAGQQDTERLTLPALQQRLSLFPGTHLTPYLSTSPLERDGGAAHSPLLQHMVLLEQPPAQAPLVTGLGALPLHAQSLVGADRVSPSIHKLRQHRPLGRTQSAPLPQNAQALQHLVIQQQHQQFLEKHKQQFQQQQLQMNKIIPKPSEPARQPESHPEETEEELREHQALLDEPYLDRLPGQKEAHAQAGVQVKQEPIESDEEEAEPPREVEPGQRQPSEQELLFRQQALLLEQQRIHQLRNYQASMEAAGIPVSFGGHRPLSRAQSSPASATFPVSVQEPPTKPRFTTGLVYDTLMLKHQCTCGSSSSHPEHAGRIQSIWSRLQETGLRGKCECIRGRKATLEELQTVHSEAHTLLYGTNPLNRQKLDSKKLLGSLASVFVRLPCGGVGVDSDTIWNEVHSAGAARLAVGCVVELVFKVATGELKNGFAVVRPPGHHAEESTPMGFCYFNSVAVAAKLLQQRLSVSKILIVDWDVHHGNGTQQAFYSDPSVLYMSLLRYDDGNFFPGSGAPDEVGTGPGVGFNVNMAFTGGLDPPMGDAEYLAAFRTVVMPIASEFAPDVVLVSSGFDAVEGHPTPLGGYNLSARCFGYLTKQLMGLAGGRIVLALEGGHDLTAICDASEACVSALLGNELDPLPEKVLQQRPNANAVRSMEKVMEIHSKYWRCLQRTTSTAGRSLIEAQTCENEEAETVTAMASLSVGVKPAEKRPDEEPMEEEPPLDYKDDDDK	had decreased HDAC activity compared to wild-type HDAC4	had decreased HDAC activity compared to wild-type HDAC4
HDAC4 dominant negative variant (H802K, H803L) with C-terminal Flag (expressed from pEAK-HDAC4 (H802K, H803L)) (protein) MSSQSHPDGLSGRDQPVELLNPARVNHMPSTVDVATALPLQVAPSAVPMDLRLDHQFSLPVAEPALREQQLQQELLALKQKQQIQRQILIAEFQRQHEQLSRQHEAQLHEHIKQQQEMLAMKHQQELLEHQRKLERHRQEQELEKQHREQKLQQLKNKEKGKESAVASTEVKMKLQEFVLNKKKALAHRNLNHCISSDPRYWYGKTQHSSLDQSSPPQSGVSTSYNHPVLGMYDAKDDFPLRKTASEPNLKLRSRLKQKVAERRSSPLLRRKDGPVVTALKKRPLDVTDSACSSAPGSGPSSPNNSSGSVSAENGIAPAVPSIPAETSLAHRLVAREGSAAPLPLYTSPSLPNITLGLPATGPSAGTAGQQDTERLTLPALQQRLSLFPGTHLTPYLSTSPLERDGGAAHSPLLQHMVLLEQPPAQAPLVTGLGALPLHAQSLVGADRVSPSIHKLRQHRPLGRTQSAPLPQNAQALQHLVIQQQHQQFLEKHKQQFQQQQLQMNKIIPKPSEPARQPESHPEETEEELREHQALLDEPYLDRLPGQKEAHAQAGVQVKQEPIESDEEEAEPPREVEPGQRQPSEQELLFRQQALLLEQQRIHQLRNYQASMEAAGIPVSFGGHRPLSRAQSSPASATFPVSVQEPPTKPRFTTGLVYDTLMLKHQCTCGSSSSHPEHAGRIQSIWSRLQETGLRGKCECIRGRKATLEELQTVHSEAHTLLYGTNPLNRQKLDSKKLLGSLASVFVRLPCGGVGVDSDTIWNEVHSAGAARLAVGCVVELVFKVATGELKNGFAVVRPPGKLAEESTPMGFCYFNSVAVAAKLLQQRLSVSKILIVDWDVHHGNGTQQAFYSDPSVLYMSLHRYDDGNFFPGSGAPDEVGTGPGVGFNVNMAFTGGLDPPMGDAEYLAAFRTVVMPIASEFAPDVVLVSSGFDAVEGHPTPLGGYNLSARCFGYLTKQLMGLAGGRIVLALEGGHDLTAICDASEACVSALLGNELDPLPEKVLQQRPNANAVRSMEKVMEIHSKYWRCLQRTTSTAGRSLIEAQTCENEEAETVTAMASLSVGVKPAEKRPDEEPMEEEPPLDYKDDDDK	had decreased HDAC activity compared to wild-type HDAC4	had decreased HDAC activity compared to wild-type HDAC4
